Test results published in US20150299277A1, “AGENT FOR TREATING OR PREVENTING SYSTEMIC INFLAMMATORY RESPONSE SYNDROME” (THE UNIVERSITY OF TOKYO, priority 2012, published 2015).

Biological target: recombinant human histone H4 (human) (UniProt P62805)
Assay: cell-based or functional assay

- aggregation stoichiometry (protein left after removal of the aggregate, SYPRO Ruby) (mol histone H4 per mol N-terminal domain): 2
Substance: Escherichia coli-expressed His-tagged N-terminal domain human PTX3 (18-178 amino acids), wild-type (from UniProt P26022 18-178)
